Tested on: Escherichia coli TOP10
Assay: shrunken log2 fold change of peptide-encoding DNA abundance (4.5 h post-induction vs induction); higher = less antimicrobial activity (less host growth inhibition)
Conditions: time post-induction: 4.5 h; library: site-saturation at positions 5, 18, 19, 20
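Note: peptides expressed intracellularly from a pBAD plasmid library in pooled LB shake-flask culture, induced with 0.3% L-arabinose, DNA abundance read by NGS, three biological replicates, DESeq2 with apeglm shrinkage.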

Q: RRIRLRPPRLPRPRPRPRDKPRP was tested. Which “shrunken log2 fold change” value did it give?
A: 0.133

Q: With RRIRGRPPRLPRPRPRPMESPRP as the sequence, how does the “shrunken log2 fold change” value read?
A: 0.295

Q: How did the “shrunken log2 fold change” value turn out when RRIRWRPPRLPRPRPRPFETPRP was run?
A: 0.0441

Q: With RRIRCRPPRLPRPRPRPYGWPRP as the sequence, how does the “shrunken log2 fold change” value read?
A: -0.27

Q: RRIRDRPPRLPRPRPRPDDVPRP was tested. Which “shrunken log2 fold change” value did it give?
A: 0.276

Q: How did the “shrunken log2 fold change” value turn out when RRIRYRPPRLPRPRPRPAWVPRP was run?
A: 0.0366

Q: With RRIRQRPPRLPRPRPRPASDPRP as the sequence, how does the “shrunken log2 fold change” value read?
A: 0.197

Q: For RRIRTRPPRLPRPRPRPPLHPRP, which “shrunken log2 fold change” value is on record?
A: 0.0532

Q: With RRIRMRPPRLPRPRPRPECNPRP as the sequence, how does the “shrunken log2 fold change” value read?
A: 0.0477

Q: Which “shrunken log2 fold change” value does the source give for RRIRVRPPRLPRPRPRPWVWPRP here?
A: 0.292

Q: RRIRVRPPRLPRPRPRPAMLPRP was tested. Which “shrunken log2 fold change” value did it give?
A: 0.0111

Q: With RRIRKRPPRLPRPRPRPYTEPRP as the sequence, how does the “shrunken log2 fold change” value read?
A: -0.295

Q: For RRIRARPPRLPRPRPRPYANPRP, which “shrunken log2 fold change” value is on record?
A: -0.165

Q: With RRIRRRPPRLPRPRPRPKIEPRP as the sequence, how does the “shrunken log2 fold change” value read?
A: 0.0387

Q: Which “shrunken log2 fold change” value does the source give for RRIRLRPPRLPRPRPRPLQCPRP here?
A: 0.121

Q: For RRIRTRPPRLPRPRPRPGPDPRP, which “shrunken log2 fold change” value is on record?
A: -0.228

Q: For RRIRIRPPRLPRPRPRPFITPRP, which “shrunken log2 fold change” value is on record?
A: -0.626

Q: With RRIRHRPPRLPRPRPRPQSQPRP as the sequence, how does the “shrunken log2 fold change” value read?
A: -0.127

Q: For RRIRARPPRLPRPRPRPLRNPRP, which “shrunken log2 fold change” value is on record?
A: 0.516

Q: How did the “shrunken log2 fold change” value turn out when RRIRWRPPRLPRPRPRPKEKPRP was run?
A: 0.0316

Q: RRIRMRPPRLPRPRPRPNVRPRP was tested. Which “shrunken log2 fold change” value did it give?
A: 0.0272

Q: How did the “shrunken log2 fold change” value turn out when RRIRKRPPRLPRPRPRPKVVPRP was run?
A: 0.223

Q: How did the “shrunken log2 fold change” value turn out when RRIRDRPPRLPRPRPRPRGLPRP was run?
A: 0.825

Q: How did the “shrunken log2 fold change” value turn out when RRIRQRPPRLPRPRPRPKPHPRP was run?
A: 0.167

Q: With RRIRYRPPRLPRPRPRPINQPRP as the sequence, how does the “shrunken log2 fold change” value read?
A: -0.113

Q: RRIRVRPPRLPRPRPRPLWTPRP was tested. Which “shrunken log2 fold change” value did it give?
A: 0.0846

Q: For RRIRMRPPRLPRPRPRPKYNPRP, which “shrunken log2 fold change” value is on record?
A: -0.446

Q: RRIRIRPPRLPRPRPRPCCRPRP was tested. Which “shrunken log2 fold change” value did it give?
A: -0.322

Q: How did the “shrunken log2 fold change” value turn out when RRIRYRPPRLPRPRPRPAEVPRP was run?
A: -0.0361

Q: With RRIRTRPPRLPRPRPRPNWAPRP as the sequence, how does the “shrunken log2 fold change” value read?
A: -0.243

Q: With RRIRWRPPRLPRPRPRPVQCPRP as the sequence, how does the “shrunken log2 fold change” value read?
A: 0.039

Q: RRIRGRPPRLPRPRPRPNTMPRP was tested. Which “shrunken log2 fold change” value did it give?
A: 0.0452

Q: Which “shrunken log2 fold change” value does the source give for RRIRMRPPRLPRPRPRPDNSPRP here?
A: -0.071

Q: RRIRGRPPRLPRPRPRPLITPRP was tested. Which “shrunken log2 fold change” value did it give?
A: 0.676

Q: For RRIRARPPRLPRPRPRPTKPPRP, which “shrunken log2 fold change” value is on record?
A: 0.24

Q: With RRIRVRPPRLPRPRPRPYENPRP as the sequence, how does the “shrunken log2 fold change” value read?
A: -0.293

Q: How did the “shrunken log2 fold change” value turn out when RRIRRRPPRLPRPRPRPVFHPRP was run?
A: 0.258

Q: How did the “shrunken log2 fold change” value turn out when RRIRVRPPRLPRPRPRPHTGPRP was run?
A: -0.495

Q: How did the “shrunken log2 fold change” value turn out when RRIRYRPPRLPRPRPRPYKQPRP was run?
A: -0.025

Q: With RRIRHRPPRLPRPRPRPQWEPRP as the sequence, how does the “shrunken log2 fold change” value read?
A: -0.0718

Q: Which “shrunken log2 fold change” value does the source give for RRIRTRPPRLPRPRPRPRPKPRP here?
A: 0.303

Q: Which “shrunken log2 fold change” value does the source give for RRIRSRPPRLPRPRPRPYNSPRP here?
A: -0.287

Q: RRIRRRPPRLPRPRPRPACRPRP was tested. Which “shrunken log2 fold change” value did it give?
A: 0.456

Q: With RRIRARPPRLPRPRPRPPSFPRP as the sequence, how does the “shrunken log2 fold change” value read?
A: 0.415

Q: How did the “shrunken log2 fold change” value turn out when RRIRDRPPRLPRPRPRPTSKPRP was run?
A: 0.168

Q: Which “shrunken log2 fold change” value does the source give for RRIRFRPPRLPRPRPRPMHGPRP here?
A: -0.0727

Q: With RRIRRRPPRLPRPRPRPTFQPRP as the sequence, how does the “shrunken log2 fold change” value read?
A: 0.204

Q: For RRIRCRPPRLPRPRPRPYNKPRP, which “shrunken log2 fold change” value is on record?
A: -1.02

Q: RRIRHRPPRLPRPRPRPKKKPRP was tested. Which “shrunken log2 fold change” value did it give?
A: -0.0281

Q: Which “shrunken log2 fold change” value does the source give for RRIRERPPRLPRPRPRPECVPRP here?
A: 0.162

Q: RRIRGRPPRLPRPRPRPLVQPRP was tested. Which “shrunken log2 fold change” value did it give?
A: 0.802

Q: With RRIRCRPPRLPRPRPRPVVMPRP as the sequence, how does the “shrunken log2 fold change” value read?
A: -0.138

Q: For RRIRRRPPRLPRPRPRPTGSPRP, which “shrunken log2 fold change” value is on record?
A: 0.302

Q: Which “shrunken log2 fold change” value does the source give for RRIRNRPPRLPRPRPRPHKQPRP here?
A: -0.359

Q: How did the “shrunken log2 fold change” value turn out when RRIRTRPPRLPRPRPRPRHKPRP was run?
A: 0.123

Q: How did the “shrunken log2 fold change” value turn out when RRIRTRPPRLPRPRPRPSTRPRP was run?
A: -0.296

Q: For RRIRPRPPRLPRPRPRPCDPPRP, which “shrunken log2 fold change” value is on record?
A: -0.575

Q: Which “shrunken log2 fold change” value does the source give for RRIRTRPPRLPRPRPRPKPRPRP here?
A: 0.692

Q: For RRIRMRPPRLPRPRPRPTLDPRP, which “shrunken log2 fold change” value is on record?
A: 1.35

Q: How did the “shrunken log2 fold change” value turn out when RRIRSRPPRLPRPRPRPNQQPRP was run?
A: 0.121

Q: Which “shrunken log2 fold change” value does the source give for RRIRYRPPRLPRPRPRPWTWPRP here?
A: -0.106

Q: RRIRARPPRLPRPRPRPHVSPRP was tested. Which “shrunken log2 fold change” value did it give?
A: 0.0459

Q: With RRIRFRPPRLPRPRPRPYDVPRP as the sequence, how does the “shrunken log2 fold change” value read?
A: -0.185

Q: For RRIRDRPPRLPRPRPRPRANPRP, which “shrunken log2 fold change” value is on record?
A: 0.567

Q: Which “shrunken log2 fold change” value does the source give for RRIRFRPPRLPRPRPRPGCSPRP here?
A: -0.0796

Q: With RRIRQRPPRLPRPRPRPPADPRP as the sequence, how does the “shrunken log2 fold change” value read?
A: 0.362

Q: Which “shrunken log2 fold change” value does the source give for RRIRPRPPRLPRPRPRPDFAPRP here?
A: 0.0996

Q: With RRIRRRPPRLPRPRPRPQYMPRP as the sequence, how does the “shrunken log2 fold change” value read?
A: -0.234

Q: With RRIRLRPPRLPRPRPRPNEYPRP as the sequence, how does the “shrunken log2 fold change” value read?
A: -0.321

Q: With RRIRIRPPRLPRPRPRPCGLPRP as the sequence, how does the “shrunken log2 fold change” value read?
A: -0.0428

Q: Which “shrunken log2 fold change” value does the source give for RRIRRRPPRLPRPRPRPMVMPRP here?
A: 0.158

Q: With RRIRFRPPRLPRPRPRPMMRPRP as the sequence, how does the “shrunken log2 fold change” value read?
A: 0.126

Q: RRIRDRPPRLPRPRPRPTMCPRP was tested. Which “shrunken log2 fold change” value did it give?
A: -0.107

Q: Which “shrunken log2 fold change” value does the source give for RRIRRRPPRLPRPRPRPAGPPRP here?
A: 0.446

Q: How did the “shrunken log2 fold change” value turn out when RRIRCRPPRLPRPRPRPHHAPRP was run?
A: 0.0208

Q: How did the “shrunken log2 fold change” value turn out when RRIRMRPPRLPRPRPRPSHHPRP was run?
A: -0.171

Q: How did the “shrunken log2 fold change” value turn out when RRIRGRPPRLPRPRPRPAHEPRP was run?
A: 0.0535

Q: Which “shrunken log2 fold change” value does the source give for RRIRKRPPRLPRPRPRPSNNPRP here?
A: -0.0375

Q: Which “shrunken log2 fold change” value does the source give for RRIRGRPPRLPRPRPRPREWPRP here?
A: 0.843

Q: How did the “shrunken log2 fold change” value turn out when RRIRIRPPRLPRPRPRPLTKPRP was run?
A: -0.94

Q: Which “shrunken log2 fold change” value does the source give for RRIRYRPPRLPRPRPRPCNQPRP here?
A: -0.224

Q: How did the “shrunken log2 fold change” value turn out when RRIRKRPPRLPRPRPRPEVYPRP was run?
A: -0.0138

Q: For RRIRDRPPRLPRPRPRPGLEPRP, which “shrunken log2 fold change” value is on record?
A: 1

Q: For RRIRWRPPRLPRPRPRPRRAPRP, which “shrunken log2 fold change” value is on record?
A: 0.737

Q: RRIRTRPPRLPRPRPRPYSTPRP was tested. Which “shrunken log2 fold change” value did it give?
A: -0.0702

Q: Which “shrunken log2 fold change” value does the source give for RRIRERPPRLPRPRPRPPHEPRP here?
A: 0.731

Q: RRIRDRPPRLPRPRPRPPWYPRP was tested. Which “shrunken log2 fold change” value did it give?
A: -0.0741

Q: Which “shrunken log2 fold change” value does the source give for RRIRARPPRLPRPRPRPIVCPRP here?
A: 0.00943

Q: Which “shrunken log2 fold change” value does the source give for RRIRYRPPRLPRPRPRPRIDPRP here?
A: -0.174

Q: For RRIRARPPRLPRPRPRPAQPPRP, which “shrunken log2 fold change” value is on record?
A: 0.723

Q: Which “shrunken log2 fold change” value does the source give for RRIRKRPPRLPRPRPRPRDHPRP here?
A: 0.494

Q: With RRIRKRPPRLPRPRPRPPDKPRP as the sequence, how does the “shrunken log2 fold change” value read?
A: 0.474

Q: Which “shrunken log2 fold change” value does the source give for RRIRIRPPRLPRPRPRPQNFPRP here?
A: 0.0159

Q: With RRIRKRPPRLPRPRPRPRMHPRP as the sequence, how does the “shrunken log2 fold change” value read?
A: 0.557

Q: RRIRQRPPRLPRPRPRPWFGPRP was tested. Which “shrunken log2 fold change” value did it give?
A: -0.352

Q: RRIRVRPPRLPRPRPRPHAQPRP was tested. Which “shrunken log2 fold change” value did it give?
A: -0.224

Q: How did the “shrunken log2 fold change” value turn out when RRIRTRPPRLPRPRPRPPHKPRP was run?
A: 0.242

Q: RRIRWRPPRLPRPRPRPSWIPRP was tested. Which “shrunken log2 fold change” value did it give?
A: 0.0261

Q: How did the “shrunken log2 fold change” value turn out when RRIRMRPPRLPRPRPRPRDTPRP was run?
A: 0.964

Q: For RRIRGRPPRLPRPRPRPRAQPRP, which “shrunken log2 fold change” value is on record?
A: 0.778

Q: RRIRLRPPRLPRPRPRPMFYPRP was tested. Which “shrunken log2 fold change” value did it give?
A: -0.361

Q: Which “shrunken log2 fold change” value does the source give for RRIRCRPPRLPRPRPRPTLYPRP here?
A: -0.396

Q: Which “shrunken log2 fold change” value does the source give for RRIRNRPPRLPRPRPRPREAPRP here?
A: 0.00436

Q: How did the “shrunken log2 fold change” value turn out when RRIRRRPPRLPRPRPRPAALPRP was run?
A: 0.55

Q: With RRIRYRPPRLPRPRPRPNSAPRP as the sequence, how does the “shrunken log2 fold change” value read?
A: -0.805

Q: How did the “shrunken log2 fold change” value turn out when RRIRCRPPRLPRPRPRPSFWPRP was run?
A: -0.0552

Q: For RRIRVRPPRLPRPRPRPAMPPRP, which “shrunken log2 fold change” value is on record?
A: 0.0637

Q: Which “shrunken log2 fold change” value does the source give for RRIRYRPPRLPRPRPRPHYIPRP here?
A: -0.318

Q: RRIRCRPPRLPRPRPRPNIKPRP was tested. Which “shrunken log2 fold change” value did it give?
A: -0.647
